Source: publication PMC10354202

Columns and labels:
[1] = molecular target: (Ig32)2-(R3^IVVI)-(Ig32)2 polyprotein, talin R3 domain with the IVVI mutation; test: single-molecule magnetic tweezers; talin R3 polyprotein tethered between glass and bead; vinculin allowed to bind at 8.5 pN for a variable time, then a 40 pN pulse to force dissociation; unbinding times at 40 pN (square-root histogram); PBS with 10 mM ascorbic acid, pH 7.3
[2] = molecular target: (Ig32)2-(R3^IVVI)-(Ig32)2 polyprotein, talin R3 domain with the IVVI mutation; test: single-molecule magnetic tweezers; talin R3 polyprotein tethered between glass (HaloTag) and streptavidin-coated bead (biotinylated AviTag); vinculin in solution (20 nM FLV); constant low force (~8.5 pN, up to ~9-10 pN); PBS with 10 mM ascorbic acid, pH 7.3; Kd from the paper's kinetic model
[3] = molecular target: (Ig32)2-(R3^IVVI)-(Ig32)2 polyprotein, talin R3 domain with the IVVI mutation; test: single-molecule magnetic tweezers; talin R3 polyprotein tethered between glass and bead; vinculin in solution (20 nM FLV); constant higher forces (12.5 pN, 15 pN; above ~10 pN), reversible binding and unbinding steps; unbinding rates against force fitted to the Bell-Evans model; PBS with 10 mM ascorbic acid, pH 7.3
[4] = molecular target: actin from rabbit skeletal muscle (rabbit) (UniProt P68135)
[5] = molecular target: (Ig32)2-(R3^IVVI)-(Ig32)2 polyprotein, talin R3 domain with the IVVI mutation; test: magnetic tweezers; details: parent: est. 9 s, read off a plot

full-length human vinculin, wild type, sequence (P18206 other isoform, or with tags, fused parts or gaps): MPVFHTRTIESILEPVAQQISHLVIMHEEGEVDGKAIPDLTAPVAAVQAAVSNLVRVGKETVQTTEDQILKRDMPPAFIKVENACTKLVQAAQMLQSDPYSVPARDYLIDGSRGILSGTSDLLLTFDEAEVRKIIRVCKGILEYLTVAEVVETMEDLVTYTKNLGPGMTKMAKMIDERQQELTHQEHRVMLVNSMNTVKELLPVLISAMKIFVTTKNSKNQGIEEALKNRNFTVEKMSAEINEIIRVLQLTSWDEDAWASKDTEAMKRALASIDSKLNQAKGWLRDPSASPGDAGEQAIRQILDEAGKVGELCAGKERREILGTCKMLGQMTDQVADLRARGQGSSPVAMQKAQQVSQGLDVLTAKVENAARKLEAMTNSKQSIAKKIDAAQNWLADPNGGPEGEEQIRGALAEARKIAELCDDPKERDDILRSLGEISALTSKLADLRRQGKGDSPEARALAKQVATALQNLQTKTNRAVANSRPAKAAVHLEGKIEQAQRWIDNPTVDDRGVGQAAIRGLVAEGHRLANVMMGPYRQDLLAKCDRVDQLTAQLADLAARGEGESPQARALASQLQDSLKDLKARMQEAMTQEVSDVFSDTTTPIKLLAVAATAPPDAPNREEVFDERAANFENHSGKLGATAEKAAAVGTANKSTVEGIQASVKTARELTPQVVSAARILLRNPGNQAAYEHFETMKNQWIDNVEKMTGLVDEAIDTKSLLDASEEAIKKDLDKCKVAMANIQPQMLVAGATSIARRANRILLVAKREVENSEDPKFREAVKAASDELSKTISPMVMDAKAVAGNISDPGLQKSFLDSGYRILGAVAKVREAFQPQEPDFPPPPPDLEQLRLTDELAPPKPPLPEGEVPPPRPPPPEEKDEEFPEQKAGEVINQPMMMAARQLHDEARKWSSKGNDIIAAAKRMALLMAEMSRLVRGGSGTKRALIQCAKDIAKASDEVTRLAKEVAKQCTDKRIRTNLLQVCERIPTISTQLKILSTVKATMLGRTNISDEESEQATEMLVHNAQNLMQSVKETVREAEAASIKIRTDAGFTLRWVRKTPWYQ

full-length human vinculin, wild type (from UniProt P18206-2 1-1066) (natural protein)
timescale of maturation from the weak to the stable bound state [1]: 37 s | unbinding time at 40 pN, stronger binding mode (t2) [1]: 7.4 s | unbinding time at 40 pN, weak binding mode (t1) [1]: 0.4 s | Kd, initial bound state, low forces (up to ~9-10 pN) [2]: 0.2 nM | Kd, mature bound state, low forces (up to ~9-10 pN) [2]: 4 pM | timescale of unbinding at ~8.5 pN [2]: 1 hour | Kd, forces above ~10 pN [3]: 5 nM | k0, intrinsic off-rate (Bell-Evans fit of the unbinding rates, zero force) [3]: 0.0066 s⁻¹ | unbinding rate of Fig. 1G extrapolated to ~8.5 pN [3]: 0.01 s⁻¹

full-length human vinculin K944A-R945A-D1013A-E1015A-E986A (5M) (from UniProt P18206-2 1-1066) (natural protein)
ratio of bundled actin of 5M against that of the 4M variant, TIRF microscopy, no talin-VBS1 [4]: 1.4 fold over 4M

full-length human vinculin, wild type (from UniProt P18206-2) T12
other: average unbinding time at 40 pN [5]: 20 s
